These results are taken from US20210388087A1 (Chugai, published 2021).

B1: H183/L072 VL V27cQ (antibody, name in Kabat numbering, V domains shown)
VH: QVQLVESGGGLVQPGRSLRLSCAASGFTFSNAWMHWVRQAPGKGLEWVAQIKDKGNAYAAYYAPSVKGRFTISRDDSKNSIYLQMNSLKTEDTAVYYCHYVHYASASTVLPAFGVDAWGQGTTVTVSS
VL: DIVMTQSPLSLPVTPGEPASISCQASQELQHMNRNTYLHWYQQKPGQAPRLLIYKVSNRFPGVPDRFSGSGSGTDFTLKISRVEAEDVGVYYCAQGTSVPFTFGQGTKLEIK
notes: Dual-Ig
B2: H183/L072 VL V51H (antibody, name in Kabat numbering, V domains shown)
VH: B1 VH
VL: B1 VL with Q30V, V56H
notes: Dual-Ig
B3: H183/L072 VL V51I (antibody, name in Kabat numbering, V domains shown)
VH: B1 VH
VL: B1 VL with Q30V, V56I
notes: Dual-Ig
B4: H183/L072 VL V51K (antibody, name in Kabat numbering, V domains shown)
VH: B1 VH
VL: B1 VL with Q30V, V56K
notes: Dual-Ig
B5: H183/L072 VL V27cW (antibody, name in Kabat numbering, V domains shown)
VH: B1 VH
VL: B1 VL with Q30W
notes: Dual-Ig
B6: H183/L072 VL V51D (antibody, name in Kabat numbering, V domains shown)
VH: B1 VH
VL: B1 VL with Q30V, V56D
notes: Dual-Ig
B7: H183/L072 VL V51A (antibody, name in Kabat numbering, V domains shown)
VH: B1 VH
VL: B1 VL with Q30V, V56A
notes: Dual-Ig
B8: H183/L072 VL V51F (antibody, name in Kabat numbering, V domains shown)
VH: B1 VH
VL: B1 VL with Q30V, V56F
notes: Dual-Ig
B9: H183/L072 VL V27cT (antibody, name in Kabat numbering, V domains shown)
VH: B1 VH
VL: B1 VL with Q30T
notes: Dual-Ig
B10: H183/L072 VL V51M (antibody, name in Kabat numbering, V domains shown)
VH: B1 VH
VL: B1 VL with Q30V, V56M
notes: Dual-Ig
B11: H183/L072 VL V51E (antibody, name in Kabat numbering, V domains shown)
VH: B1 VH
VL: B1 VL with Q30V, V56E
notes: Dual-Ig
B12: H183/L072 VL V51G (antibody, name in Kabat numbering, V domains shown)
VH: B1 VH
VL: B1 VL with Q30V, V56G
notes: Dual-Ig
B13: H183/L072 VL V27cY (antibody, name in Kabat numbering, V domains shown)
VH: B1 VH
VL: B1 VL with Q30Y
notes: Dual-Ig
B14: H183/L072 VL V27cR (antibody, name in Kabat numbering, V domains shown)
VH: B1 VH
VL: B1 VL with Q30R
notes: Dual-Ig
B15: H183/L072 VL V27cS (antibody, name in Kabat numbering, V domains shown)
VH: B1 VH
VL: B1 VL with Q30S
notes: Dual-Ig
B16: H183/L072 VL V51L (antibody, name in Kabat numbering, V domains shown)
VH: B1 VH
VL: B1 VL with Q30V, V56L
notes: Dual-Ig
B17: H183/L072 VL V51N (antibody, name in Kabat numbering, V domains shown)
VH: B1 VH
VL: B1 VL with Q30V, V56N
notes: Dual-Ig

Numbering of substitutions follows the chain as printed.

T1 sequence (chain, as listed by the source limits assumed): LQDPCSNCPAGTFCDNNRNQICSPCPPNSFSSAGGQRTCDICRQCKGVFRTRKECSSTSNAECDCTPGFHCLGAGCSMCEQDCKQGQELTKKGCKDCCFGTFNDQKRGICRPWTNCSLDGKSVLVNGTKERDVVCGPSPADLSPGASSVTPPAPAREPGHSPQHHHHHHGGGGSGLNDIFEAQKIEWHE

The assay has as its target T1, Human CD137 ECD (human).
T1 construct: entry includes C-terminal His-tag and biotin acceptor peptide; also called human CD137 extracellular domain; 4-1BB
The assay is described as follows: Biacore SPR, vs parent H183/L072.
For the molecule B1, the “fold change of affinity” value was 0.8 fold.

With B2, the “fold change of affinity” value stood at 0.6 fold.

Consider B3, for which the “fold change of affinity” value is 0.6 fold.

For B4, the “fold change of affinity” value stood at 1.4 fold.

As for B5, the “fold change of affinity” value stood at 0.7 fold.

B6: the “fold change of affinity” value was found to be 0 fold.

On to B7, for which the “fold change of affinity” value came out at 0.8 fold.

As for B8, the “fold change of affinity” value turned out to be 0.2 fold.

Consider B9, for which the “fold change of affinity” value is 0.7 fold.

As for B10, the “fold change of affinity” value came to 1 fold.

With B11, the “fold change of affinity” value was 0.6 fold.

On to B12, for which the “fold change of affinity” value stood at 0.4 fold.

With B13, the “fold change of affinity” value came out at 0.7 fold.

Consider B14, for which the “fold change of affinity” value came out at 0.9 fold.

Take B15: the “fold change of affinity” value is 0.3 fold.

As to B16, the “fold change of affinity” value came to 1.7 fold.

For B17, the “fold change of affinity” value was found to be 0.3 fold.
